# From patent publication US20210032294A1, “MODIFIED PlySs2 LYSINS AND USES THEREOF” (CONTRAFECT CORPORATION, priority 2018, published 2021)
# “Also recorded” adds a separate entry of the source.
# How the values were obtained:
# MSSA isolates = experiment: MIC in CAMHB-HSD against MSSA isolates; type: cell-based, Staphylococcus aureus; conditions: 51 MSSA isolates
# Method: (§1) In vitro activity of the modified lysin polypeptide pp296 was assessed against a range of 51 MSSA and 51 MRSA isolates in cation-adjusted Mueller Hinton broth supplemented with 25% horse serum and 0.5 mM DTT (CAMHB-HSD) and compared to WT GMP grade PlySs2 (CF-301). CF-301 and pp296 were each diluted into CAMHB-HSD. For each lysin, the dilution series is set up such that, after a two-fold dilution of each well of the plate, the final concentrations contained: 64, 32, 16, 8, 4, 2, 1, 0.5, 0.25, and 0.125 μg/mL. Each lysin was tested in duplicate against each strain. Preparations were incubated overnight. Growth was visualized as a growth button approximately 2 mm in diameter. The highest dilution that yielded ≥80% growth inhibition was called the minimum inhibitory concentration (MIC). The activity of pp296 was very similar, within one 2-fold dilution, to that of CF-301, as shown below in Table 7.
# MRSA isolates = experiment: MIC in CAMHB-HSD against MRSA isolates; type: cell-based, Staphylococcus aureus; conditions: 51 MRSA isolates
# Method: as §1
# [1] = 7-day repeated 2-hour infusion toxicity study in rats; type: in vivo, Sprague Dawley rats; conditions: rats, 0.5, 2.5, or 10 mg/kg/day, 7 consecutive days
# Method: The objective of this study was to evaluate the potential toxicity and toxicokinetic profile of modified lysin polypeptide pp296 when administered daily by 2-hour infusion to Sprague Dawley rats for 7 consecutive days.
# Experimental procedures, animals and treatment are summarized below in Table 11.
# All surviving animals were submitted for necropsy on Day 8 (Terminal Euthanasia). Necropsies were performed and organ weights were collected by Testing Facility personnel. Statistical analysis of organ weight data was performed by the testing facility engaged on a fee-for-service commercial basis. Tissues required for microscopic evaluation were trimmed, processed routinely, embedded in paraffin, and stained with hematoxylin and eosin by Charles River Laboratories Ashland, LLC. Microscopic evaluation was conducted by a board-certified veterinary pathologist on select protocol-specified tissues from all animals in Groups 1 through 4 and all gross lesions from all animals. Tissues were evaluated by light microscopy.
# [2] = tested on: 5 MRSA strains and 5 MSSA strains; experiment: Checkerboard synergy assay with daptomycin or vancomycin; type: cell-based, Staphylococcus aureus; conditions: MRSA (JMI-41293) strain
# [3] = Toxicity screening in mice; type: in vivo; conditions: 30 mg/kg
# Method: Selected modified lysin polypeptides from Table 3 were subjected to further testing as described in more detail in subsequent Examples. […] The same 30 mg/kg dose of PlySs2 caused a 100% incidence of adventitial findings, which is an indication of potential toxicity.
# [4] = tested on: 5 MRSA strains and 5 MSSA strains; experiment: Checkerboard synergy assay with daptomycin or vancomycin; type: cell-based, Staphylococcus aureus; conditions: for FIC index: with vancomycin
# Method: Synergy studies with antibiotics suitable for treatment of Gram-positive bacteria, for example, daptomycin (DAP) and vancomycin (VAN), were performed using a checkerboard assay. Fractional inhibitory concentration (FIC) index values were determined for modified lysin polypeptide pp296 and antibiotic combinations against 5 methicillin-sensitive Staphylococcus aureus (MSSA) and 5 methicillin resistant Staphylococcus aureus (MRSA) isolates. An FIC index value of ≤0.5 may be interpreted as strong synergy between the two agents, while a value between 0.5 and 1 may still be considered a synergistic effect. Given that pp296 has four amino acid replacements in the catalytic domain, the ability of pp296 to synergize with antibiotics was unexpected. […] Qualitatively similar results may be anticipated upon performing similar assays using other de-immunized active variants, such as pp55, pp61, pp65, pp400, and pp619, in accordance with the present disclosure.
# In another experiment, the ability of modified lysin polypeptide pp296 to synergize with daptomycin and vancomycin was assessed using a checkerboard analysis. FIC (fractional inhibitory concentration) index values were determined for pp296 and antibiotic combinations against 5 MSSA and 5 MRSA isolates. A total of 50 μl of Mueller-Hinton broth (BBL) was distributed into each well of microdilution plates. The first antibiotic of the combination was serially diluted along the ordinate, while the second drug was diluted along the abscissa. An inoculum equal to a 0.5 McFarland turbidity standard was prepared from each S. aureus isolate in MHB. Each microtiter well was inoculated with 100 μl of a bacterial inoculum of 5×10^5 CFU/ml, and the plates were incubated at 37° C. for 18 h under aerobic conditions. The resulting checkerboard contained each combination of two antibiotics, with wells that contained the highest concentration of each antibiotic at opposite corners. […] To quantify the interactions between the antibiotics being tested, the FIC index (the combination of antibiotics that produced the greatest change from the individual antibiotic's MIC) value was calculated for each strain and antibiotic combination as follows:
# (A/MICA)+(B/MICB)=FICA+FICB=FIC index,
# Checkerboards were generated using combinations of pp296 with either daptomycin or vancomycin against 5 MRSA strains (MW2, JMI-5675, JMI-4408, JMI-6181, and JMI-6182) and 5 MSSA strains (ATCC 29213, JMI-40979, JMI-43257, JMI-41293, and JMI-49315). Synergy was defined as inhibitory activity greater than what would be predicted by adding the two components together.
molecule,measurement,setting,value
"pp296: Modified PlySs2 lysin, SEQ ID NO: 6: L92W, V104S, V128T, Y137S, Y164K, N184D, S198Q (protein) MTTVNEALNNVRAQVGSGVSVGNGECYALASWYERMISPDATVGLGAGVGWVSGAIGDTISAKNIGSSYNWQANGWTVSTSGPFKAGQIVTWGATPGNPYGHVSIVEAVDGDRLTILEQNYGGKRYPTRNYYSAASSRQQVVHYITPPGTVAQSAPNLAGSRSKRETGTMTVTVDALNVRRAPDTSGEIVAVYKRGEQFDYDTAIIDVNGYAWVSYIGGSGKRNYVATGATKDGKRFGNAWGTFK",MIC50,MSSA isolates,1 µg/mL
same,MIC90,MSSA isolates,1 µg/mL
same,MIC Range,MSSA isolates,0.5 to 2 µg/mL
same,MIC50,MRSA isolates,1 µg/mL
same,MIC90,MRSA isolates,1 µg/mL
same,MIC Range,MRSA isolates,0.25 to 2 µg/mL
same,Toxicity findings,[1]; 2-hour infusion,"No toxicity was found; also recorded: no pp296-related gross, microscopic, or organ weight findings"
same,Unscheduled deaths,[1],no unscheduled deaths
same,FIC index,[2],0.75
same,Adventitial findings (lesions),[3],no adventitial findings; also recorded: did not result in adventitial lesions
same,FIC index values,"[4]; with both daptomycin and vancomycin, predominantly",~0.5
same,FIC index,[4]; MRSA JMI-6182,0.375
same,FIC index,[4]; MSSA ATCC 29213,0.625
same,FIC index,[4]; MSSA strain JMI-40979,0.375
same,FIC index,[4]; against 6 of the 10 strains examined,0.5
